T1: Tah1 (full-length yeast Tah1) (S. cerevisiae, UniProt P25638 1-111)
T1 construct: Tah1, yeast (S. cerevisiae), synthetic full-length gene expressed from pRSET-A; In the crystal two Tah1 chains form a helix-swapped dimer; in solution Tah1 is mainly monomeric; also called TPR domain of Tah1
T1 sequence (looked up): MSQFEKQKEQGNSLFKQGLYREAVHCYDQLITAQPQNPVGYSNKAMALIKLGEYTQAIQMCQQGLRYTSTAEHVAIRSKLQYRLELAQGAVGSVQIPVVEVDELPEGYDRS

T2: Flag-Tah1 (S. cerevisiae, UniProt P25638 1-111)
T2 construct: Tah1, yeast
T2 sequence (looked up): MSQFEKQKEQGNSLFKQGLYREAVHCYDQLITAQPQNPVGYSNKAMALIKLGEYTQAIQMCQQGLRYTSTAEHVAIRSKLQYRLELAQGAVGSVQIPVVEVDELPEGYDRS


What was measured:
[1] = molecular target: T1, Tah1 (full-length yeast Tah1); test: crystal structure; Tah1 at 10 mg/ml with 5 mM … peptide; sitting drop, 100 mM MES pH 6.0, 200 mM ammonium chloride, 20% PEG 6000, 4°C; refined to 2 Å; settings: both partners purified
Flag-Tah1 = molecular target: T2, Flag-Tah1; test: pull-down; 70 µM Flag-Tah1 and Hsp90 600-709 with increasing AIP 172-315 or full-length AIP (5-10 molar excess); 20 mM HEPES pH 7.5, 150 mM NaCl, 10% glycerol, 0.5% IGEPAL, 2 mM EDTA; captured on anti-Flag M2 magnetic beads; eluate on SDS-PAGE; settings: both partners purified

Binder | binding result [1] | binding result (Flag-Tah1)
EDASRMEEVD (C-terminal peptide of Hsp90 with the conserved MEEVD motif; also called MEEVD peptide of Hsp90; SRMEEVD peptide) [Hsp90 peptide EDASRMEEVD] | binds | –
Hsp90 600-709 (domain or fragment, Hsp90 C-terminal fragment, residues 600-709; Used at 70 µM in the pull-down; also called cHsp90) not shown | – | binds

Source: publication PMC4427203, “Tah1 helix-swap dimerization prevents mixed Hsp90 co-chaperone complexes” (Acta Crystallographica Section D: Biological Crystallography, 2015)
